Positions of bridges follow the written chain, without caps; N, C: chain ends. No end group written: not given here.
Tests used:
[1] = target: T1, human receptor protein SLT (hSLT) (human, UniProt Q969V1 1-340); assay: cell-based or functional assay
[2] = target: T1, human receptor protein SLT (hSLT); assay: radioligand competition; [125I]-labeled MCH(4-19) on membrane fraction (30 ug/ml) of human SLT-expressing CHO cells, filtration
Protocol: Receptor binding assay was performed using [¹²⁵I]-labeled MCH (4-19) prepared in REFERENCE EXAMPLE 3 using Bolton-Hunter reagent and the cell membrane fraction prepared from human SLT-expressing CHO cells.
The cell membrane fraction prepared from human SLT-expressing CHO cells according to EXAMPLE 6 was diluted at various concentrations with the assay buffer (50 mM Tris-HCl, 5 mM EGTA (ethyleneglycol-bis(aminoethylether) tetraacetic acid), 5 mM magnesium acetate, 0.05% CHAPS, 0.1% BSA (bovine serum albumin), 0.25 mM PMSF (phenylmethylsulfonyl fluoride), 1 μg/ml pepstatin, 20 μg/ml leupeptin, pH 7.4). A 200 μl aliquot of each dilution was then dispensed in a polypropylene testing tube (Falcon, Inc., 2053). Two μl of DMSO and 2 μl of 20 nM [¹²⁵I]-labeled MCH (4-19) were added to the membrane fraction solution to determine the amount of total binding (TB), and 2 μl of a solution of 100 μM MCH in DMSO and 2 μl of […] [¹²⁵I]-labeled MCH (4-19) were added thereto to determine the amount of non-specific binding (NSB). After reaction at 25° C. for 60 minutes, the reaction solution was filtered with suction through a polyethyleneimine-treated glass filter (Whatman Co., GF-F). Following the filtration, the radioactivity of [¹²⁵I]-labeled MCH (4-19) remaining on the filter paper was measured with a γ-counter.
As a result, the IC₅₀ value was approximately 20 nM (FIG. 4). […]

T1 sequence (Q969V1 whole entry): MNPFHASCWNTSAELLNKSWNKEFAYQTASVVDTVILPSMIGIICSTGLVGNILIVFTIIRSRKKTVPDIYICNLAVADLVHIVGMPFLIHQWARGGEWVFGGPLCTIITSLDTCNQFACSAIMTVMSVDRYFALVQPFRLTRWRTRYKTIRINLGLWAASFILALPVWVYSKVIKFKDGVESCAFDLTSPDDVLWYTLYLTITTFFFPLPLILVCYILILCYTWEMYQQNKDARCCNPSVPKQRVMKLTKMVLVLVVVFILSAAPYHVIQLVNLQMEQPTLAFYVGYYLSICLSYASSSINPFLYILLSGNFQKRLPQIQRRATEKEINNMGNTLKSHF

| Binder | release of [3H] arachidonic acid metabolite in human SLT-expressing CHO cells, EC50 [1] | IC50 [2] |
| --- | --- | --- |
| DFDMLRCMLGRVYRPCWQV (disulfide 7-16) [melanin-concentrating hormone, MCH (synthetic human MCH)] | 0.57 nM | ~20 nM |
| MLRCMLGRVYRPCWQV-OH (disulfide 4-13; N-terminus assumed; SMILES CSCC[C@@H]1NC(=O)[C@@H](NC(=O)[C@H](CCCNC(=N)N)NC(=O)[C@H](CC(C)C)NC(=O)[C@@H](N)CCSC)CSSC[C@@H](C(=O)N[C@@H](Cc2c[nH]c3ccccc23)C(=O)N[C@@H](CCC(N)=O)C(=O)N[C@H](C(=O)O)C(C)C)NC(=O)[C@@H]2CCCN2C(=O)[C@H](CCCNC(=N)N)NC(=O)[C@H](Cc2ccc(O)cc2)NC(=O)[C@H](C(C)C)NC(=O)[C@H](CCCNC(=N)N)NC(=O)CNC(=O)[C@H](CC(C)C)NC1=O, also called amino terminal-truncated form of MCH; N-terminal truncated form) [Des-[Asp1, Phe2, Asp3]-MCH (MCH(4-19))] |  | 3.3 nM |

From US20040086941A1 (Takeda / Millennium, published 2004)
